PMC6529640, “Bacterioferritin of Magnetospirillum gryphiswaldense Is a Heterotetraeicosameric Complex Composed of Functionally Distinct Subunits but Is Not Involved in Magnetite Biomineralization” (mBio, 2019)

Biological target: the molecule itself
Experiment: native gel or EMSA; BN-PAGE of purified proteins on polyacrylamide gradient gels, run at 4°C, Coomassie stained; Bfr2 and Bfr12 ~22 μM, Bfr1 ~30 μM in 50 mM Tris-HCl, 50 mM NaCl, pH 8.0, or Bfr12 dialysed against 50 mM imidazole-HCl, 50 mM NaCl, pH 7; for Bfr12 also a second dimension of SDS-PAGE (2D-BN/SDS-PAGE)

B1: Bfr1 of MSR-1 expressed alone from pET-51b-Bfr1 (natural protein, Magnetospirillum gryphiswaldense MSR-1, UniProt A0ACM8UIY5 1-159, looked up)
chain: MRGSPKVISVLNGLLTGELTAADQYFVHARMLENWGFKVLYERIEHERHDELDHAGLLINRILFLEGVPDVASRAALNIGSDVPKMMANDLAYELQVVDELKAAIALCESERDYDTRRILVHLLEETEQDHVRWLEVQVGLIDKLGLKNYLQSAAGEIA
notes: bacterioferritin subunit Bfr1, Magnetospirillum gryphiswaldense MSR-1, locus MSR1_27050; expressed without Bfr2
stoichiometry N: 3
